Results: patent US20050048579A1, “Tertiary structures of ICAM-1/LFA-1 modulators” (priority 2003, published 2005)
Bridge positions count the residues as written; N and C are the ends. Ends that are not written are not given here. Peptide text beside a SMILES is read from it.

Target: T1, Intercellular adhesion molecule-1 (ICAM-1) on JY cells (UniProt P05362 28-532, limits assumed)
Assay: cell-based or functional assay
Details: not given

T1 sequence (P05362 28-532 limits assumed): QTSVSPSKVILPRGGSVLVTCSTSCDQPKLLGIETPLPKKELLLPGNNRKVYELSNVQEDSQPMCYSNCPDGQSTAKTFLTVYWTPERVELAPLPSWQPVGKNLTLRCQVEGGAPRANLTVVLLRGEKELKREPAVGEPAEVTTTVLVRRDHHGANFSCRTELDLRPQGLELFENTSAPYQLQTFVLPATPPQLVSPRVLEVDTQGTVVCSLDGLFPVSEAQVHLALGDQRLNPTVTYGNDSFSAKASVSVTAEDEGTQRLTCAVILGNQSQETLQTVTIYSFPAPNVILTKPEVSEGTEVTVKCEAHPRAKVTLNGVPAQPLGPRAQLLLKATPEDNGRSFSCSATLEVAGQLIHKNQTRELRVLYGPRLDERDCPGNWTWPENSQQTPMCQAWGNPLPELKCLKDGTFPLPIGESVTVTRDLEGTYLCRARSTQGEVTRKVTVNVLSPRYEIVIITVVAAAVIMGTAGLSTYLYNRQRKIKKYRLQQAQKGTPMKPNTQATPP

Row | Molecule | IC50, inhibition of JY cell aggregation, 360 minute incubation [µM] | fold improvement of activity over IP01 (JY cell aggregation) [fold] | fold improvement of inhibition over IP01 (JY cell aggregation IC50) [fold] | fold smaller IC50 than IP01 (JY cell aggregation, 360 minutes) [fold]
1 | CLLRMRSIC (disulfide 1-9) [IP01 (inhibitory peptide-01)] | 580 |  |  | 
2 | CLLRMRSAC (disulfide 1-9) [IP02] | 480 | 2 | 2.5 | 

More lines, now with the values ahead:

Row | IC50, inhibition of JY cell aggregation, 360 minute incubation [µM] | fold improvement of activity over IP01 (JY cell aggregation) [fold] | fold improvement of inhibition over IP01 (JY cell aggregation IC50) [fold] | fold smaller IC50 than IP01 (JY cell aggregation, 360 minutes) [fold] | Molecule
3 | ~700 |  |  |  | CLLRMRSVC (disulfide 1-9) [IP02-V8]
4 | > 1000 |  |  |  | CVLRMRSAC (disulfide 1-9) [IP02-V2]
5 | > 1000 |  |  |  | CLVRMRSAC (disulfide 1-9) [IP02-V3]
6 | 90 |  |  | ~6 | CLLRMKSAC (disulfide 1-9) [IP02-K6]
7 | > 1000 |  |  |  | CLLRMRSLC (disulfide 1-9) [IP02-L8]
8 | ~700 |  |  |  | CLIRMRSAC (disulfide 1-9) [IP02-I3]

Target: T1, Intercellular adhesion molecule-1 …
Assay: cell-based or functional assay
Details: not given
Remark: another data set of the same source

Row | IC50, inhibition of JY cell aggregation at 2 hours [µM] | Molecule
9 | 740 | CLLRMRAIC (disulfide 1-9) [IP01-A7]
10 | 530 | CLLRMRSIC (disulfide 1-9) [IP01 (inhibitory peptide-01)]
11 | > 1000 | CLLRARSIC (disulfide 1-9) [IP01-A5]
12 | > 1000 | CALRMRSIC (disulfide 1-9) [IP01-A2]
13 | 210 | CLLRMRSAC (disulfide 1-9) [IP02]
14 | > 1000 | CLARMRSIC (disulfide 1-9) [IP01-A3]
15 | > 1000 | CLLRMASIC (disulfide 1-9) [IP01-A6]

Target: T2, LFA-1 binding to ICAM-1 (JY cells) (Homo sapiens, UniProt P05362)
T2 construct: endogenous in cells; host or cells: JY cells
Assay: LFA-1:ICAM-1 dependent cell aggregation assay, slightly modified (360 minute incubations)
Assay type: cell-based
Details: cell aggregation
Procedure: (§1) JY cells were maintained in RPMI-1640 medium supplemented with 10% fetal bovine serum at 37° C. in an atmosphere containing 5% CO2 in air. The aggregation of JY cells, which is dependent on LFA-1 binding to ICAM-1, was determined as previously reported (Shannon, J. P., Silva, M. V., Brown, D. C. & Larson, R. S. (2001) Novel cyclic peptide inhibits intercellular adhesion molecule-1-mediated cell aggregation. J. Pept. Res. 58, 140-150; Larson, R. S., Brown, D. C. & Sklar, L. A.(1997) Retinoic acid induces aggregation of the acute promyelocytic leukemia cell lineNB-4 by utilization of LFA-1 and ICAM-2.Blood 90, 2747-2756; Rothlein, R. & Springer, T. A. (1986) The requirement for lymphocyte function associated antigen 1 in homotypic leukocyte adhesion stimulated by phorbol ester. J. Exp.Med. 163, 1132-1149). Briefly, JY cells were washed twice with serum-free media and resuspended at a concentration of 4×10^5 cells/mL. Cells were then preincubated with various concentrations of peptides or mAb for 15 minutes at room temperature. A 50 μL aliquot of cells was seeded in each well of a 96-well flat-bottomed microtiterplate followed by the addition of either peptide or mAb to a final volume of 100 μL. Cells were allowed to aggregate at 37° C. in humidified air containing 5% CO2. Within each well, the number of aggregates and the total number of free (single) cells were counted by inverted phase microscopy. Percent aggregation, P, was then determined as follows: P=100(1−Ff/Fi), where Ff (Fi) is the final (initial) number of free cells. Percent aggregation was then used to calculate percent inhibition, I, as follows: […], where Pi (Pc) is the percent aggregation with modulatory peptide (control). The constants for 50% inhibition (IC50) were derived from a linear fit to the percent inhibition at four concentrations (50 μm, 100 μm, 500 μm, and 1 mm) of inhibitory peptide. Each experiment was performed at least three times, with each condition performed in duplicate. The data are reported as the mean values and the SDs of each IC50.
The same general procedure was used as described in Example 1.
The functional activity of each IP02 derivative was measured in a slightly-modified version of the previously described cell aggregation assay (Shannon, J. P., Silva, M. V., Brown, D. C., & Larson, R. S. (2001). Novel cyclic peptide inhibits intercellular adhesion molecule-1-mediated cell aggregation. J. Pept. Res. 58, 140-150; Merchant, S. H., Gurule, D. M., Larson, R. S. (2003). Amelioration of ischemia-reperfusion injury with cyclic peptide blockade of ICAM-1. Am. J. Physiol. Heart Circ. 284,H1260-1268; Larson, R. S., Brown, D. C., and Sklar, L. A. (1997). Retinoic acid induces aggregation of the acute promyelocytic leukemia cell line NB-4 by utilization of LFA-1 and ICAM-2. Blood 90, 2747-2756; Rothlein, R. and Springer, T. A. (1986). The requirement for lymphocyte function-associated antigen 1 in homotypic leukocyte adhesion stimulated by phorbol ester. J. Exp. Med. 163, 1132-1149). Longer incubations (360 minutes) were used here instead of the earlier 120 minute incubations in order to increase the observed differences among peptide antagonists. Of all the amino acid substitutions, replacement of R6 with K, to produce IP02-K6, improved the IC50 the most. […] Alternatively, replacement of L2 or L3 with V (IP02-V2 and IP02-V3) or A8 with L (IP02-L8) abrogated activity, with IC50s exceeding 1,000 μM.

T2 sequence (P05362 28-532): as the sequence (P05362 28-532 limits assumed) above

Row | IC50 [µM] | Molecule
16 | 105 to 190 | CSCC[C@@H]1NC(=O)[C@H](CCCCN)NC(=O)[C@H](CC(C)C)NC(=O)[C@H](CC(C)C)NC(=O)[C@@H](N)CSSC[C@@H](C(=O)O)NC(=O)[C@H](C)NC(=O)[C@H](CO)NC(=O)[C@H](CCCNC(=N)N)NC1=O [IP02-K4, CLLKMRSAC] (H-CLLKMRSAC-OH; disulfide 1-9; N-terminus and C-terminus assumed)
17 | > 1000 | CSCC[C@@H]1NC(=O)[C@H](CCCNC(=N)N)NC(=O)[C@H](CC(C)C)NC(=O)[C@H](CC(C)C)NC(=O)[C@@H](N)CSSC[C@@H](C(=O)O)NC(=O)[C@H](CC(C)C)NC(=O)[C@H](CO)NC(=O)[C@H](CCCNC(=N)N)NC1=O [IP02-L8, CLLRMRSLC] (H-CLLRMRSLC-OH; disulfide 1-9; N-terminus and C-terminus assumed)
18 | > 1000 | CSCC[C@@H]1NC(=O)[C@H](CCCNC(=N)N)NC(=O)[C@H](CC(C)C)NC(=O)[C@H](C(C)C)NC(=O)[C@@H](N)CSSC[C@@H](C(=O)O)NC(=O)[C@H](C)NC(=O)[C@H](CO)NC(=O)[C@H](CCCNC(=N)N)NC1=O [IP02-V2] (H-CVLRMRSAC-OH; disulfide 1-9; N-terminus and C-terminus assumed)
19 | 700 | CSCC[C@@H]1NC(=O)[C@H](CCCNC(=N)N)NC(=O)[C@H](CC(C)C)NC(=O)[C@H](CC(C)C)NC(=O)[C@@H](N)CSSC[C@@H](C(=O)O)NC(=O)[C@H](C(C)C)NC(=O)[C@H](CO)NC(=O)[C@H](CCCNC(=N)N)NC1=O [IP02-V8] (H-CLLRMRSVC-OH; disulfide 1-9; N-terminus and C-terminus assumed)
20 | 105 to 190 | CC[C@H](C)[C@@H]1NC(=O)[C@@H](N)CSSC[C@@H](C(=O)O)NC(=O)[C@H](C)NC(=O)[C@H](CO)NC(=O)[C@H](CCCNC(=N)N)NC(=O)[C@H](CCSC)NC(=O)[C@H](CCCNC(=N)N)NC(=O)[C@H](CC(C)C)NC1=O [IP02-12, CILRMRSAC] (H-CILRMRSAC-OH; disulfide 1-9; N-terminus and C-terminus assumed)
21 | > 1000 | CSCC[C@@H]1NC(=O)[C@H](CCCNC(=N)N)NC(=O)[C@H](C(C)C)NC(=O)[C@H](CC(C)C)NC(=O)[C@@H](N)CSSC[C@@H](C(=O)O)NC(=O)[C@H](C)NC(=O)[C@H](CO)NC(=O)[C@H](CCCNC(=N)N)NC1=O [IP02-V3] (H-CLVRMRSAC-OH; disulfide 1-9; N-terminus and C-terminus assumed)

Same assay, conditions: cell aggregation, unit μm [sic]

Row | IC50 [µM] | Molecule
22 | ~700 | CSCC[C@@H]1NC(=O)[C@H](CCCNC(=N)N)NC(=O)[C@H](CC(C)C)NC(=O)[C@H](CC(C)C)NC(=O)[C@@H](N)CSSC[C@@H](C(=O)O)NC(=O)[C@H](C(C)C)NC(=O)[C@H](CO)NC(=O)[C@H](CCCNC(=N)N)NC1=O [IP02-V8] (H-CLLRMRSVC-OH; disulfide 1-9; N-terminus and C-terminus assumed)
23 | ~700 | CC[C@H](C)[C@@H]1NC(=O)[C@H](CC(C)C)NC(=O)[C@@H](N)CSSC[C@@H](C(=O)O)NC(=O)[C@H](C)NC(=O)[C@H](CO)NC(=O)[C@H](CCCNC(=N)N)NC(=O)[C@H](CCSC)NC(=O)[C@H](CCCNC(=N)N)NC1=O [IP02-13, CLIRMRSAC] (H-CLIRMRSAC-OH; disulfide 1-9; N-terminus and C-terminus assumed)

Target: T2, LFA-1 binding to ICAM-1 (JY cells)
Assay: LFA-1:ICAM-1 dependent JY cell aggregation assay (2 hours)
Assay type: cell-based
Details: not given
Procedure: Cysteine-constrained peptides, synthesized by Biopeptide (San Diego, Calif., USA), were isolated using high-performance liquid chromatography, and their correct mass was confirmed by mass spectrometry. The peptides were dissolved in 5% dimethylsulfoxide in phosphate-buffered saline (PBS) at concentrations of 10 mm and stored at −80° C. until use. The mAb directed against LFA-1 (TS1/18) was purified from a hybridoma line ([…], Manassas, Va.) as described previously (Oj, V. T. & Herzenberg, T. (1980) Immunoglobulin-producing hybrid celllines. In Selected Methods in Cellular Immunology (Mishell, B. B. & Shiigi, S. M.,eds), H. H. Freeman, New York; Larson, R. S., Brown, D. C. & Sklar, L. A.(1997) Retinoic acid induces aggregation of the acute promyelocytic leukemia cell lineNB-4 by utilization of LFA-1 and ICAM-2.Blood 90, 2747-2756; Rothlein, R. & Springer, T. A. (1986) The requirement for lymphocyte function associated antigen 1 in homotypic leukocyte adhesion stimulated by phorbol ester. J. Exp.Med. 163, 1132-1149).
as §1

Row | IC50 [µM] | Molecule
24 | > 1000 | CC[C@H](C)[C@@H]1NC(=O)[C@H](CO)NC(=O)[C@H](CCCNC(=N)N)NC(=O)[C@H](CCSC)NC(=O)[C@H](CCCNC(=N)N)NC(=O)[C@H](C)NC(=O)[C@H](CC(C)C)NC(=O)[C@@H](N)CSSC[C@@H](C(=O)O)NC1=O [IP01-A3, CLARMRSIC] (H-CLARMRSIC-OH; disulfide 1-9; N-terminus and C-terminus assumed)
25 | > 1000 | CC[C@H](C)[C@@H]1NC(=O)[C@H](CO)NC(=O)[C@H](C)NC(=O)[C@H](CCSC)NC(=O)[C@H](CCCNC(=N)N)NC(=O)[C@H](CC(C)C)NC(=O)[C@H](CC(C)C)NC(=O)[C@@H](N)CSSC[C@@H](C(=O)O)NC1=O [IP01-A6, CLLRMASIC] (H-CLLRMASIC-OH; disulfide 1-9; N-terminus and C-terminus assumed)
26 | > 1000 | CC[C@H](C)[C@@H]1NC(=O)[C@H](CO)NC(=O)[C@H](CCCNC(=N)N)NC(=O)[C@H](CCSC)NC(=O)[C@H](CCCNC(=N)N)NC(=O)[C@H](CC(C)C)NC(=O)[C@H](C)NC(=O)[C@@H](N)CSSC[C@@H](C(=O)O)NC1=O [IP01-A2, CALRMRSIC] (H-CALRMRSIC-OH; disulfide 1-9; N-terminus and C-terminus assumed)
